Results on three molecules are retold here after PMC6251712 (Archives of biochemistry and biophysics, 2018).

Non-standard residues stand in square brackets, D forms with d. No end group written: not given here. FAM = fluorescent label on the peptide N-terminus (FAM, not expanded in the evidence); pY = N[C@@H](Cc1ccc(OP(=O)(O)O)cc1)C(=O)O

Assay [1] addresses SHIP2 SH2 domain (SHIP2-SH2), wild type (human) (UniProt O15357). In words: NMR titration.
The target in assay [2] is FAM-labeled c-MET peptide (1353-1360) with Y1356 phosphorylated, FAM-N-A-T-pY-V-N-V-K. In words: fluorescence polarisation. A general note: Polarisation of emitted light reports the rotation of a fluorescent probe.
In another assay the target is T1, SHIP2-SH2 S84A (human, UniProt O15357 20-117, S84A).
T1 sequence (looked up): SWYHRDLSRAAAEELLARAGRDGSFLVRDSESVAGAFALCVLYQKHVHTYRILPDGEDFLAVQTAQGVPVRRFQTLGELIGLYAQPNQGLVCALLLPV
As to the kind of experiment: fluorescence polarisation.

The target in another assay is T2, SHIP2-SH2 S49A (human, UniProt O15357 20-117, S49A).
T2 sequence (looked up): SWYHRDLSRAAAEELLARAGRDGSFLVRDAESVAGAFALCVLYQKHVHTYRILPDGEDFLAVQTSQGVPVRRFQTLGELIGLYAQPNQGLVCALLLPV
As to the kind of experiment: fluorescence polarisation.

Another assay concerns the target T3, SHIP2-SH2 S27A (human, UniProt O15357 20-117, S27A).
T3 sequence (looked up): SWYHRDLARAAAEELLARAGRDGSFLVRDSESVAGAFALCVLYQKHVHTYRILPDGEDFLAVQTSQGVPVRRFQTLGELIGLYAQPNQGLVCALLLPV
In words: fluorescence polarisation.

A further assay addresses T4, SHIP2-SH2 R70A (human, UniProt O15357 20-117, R70A).
T4 sequence (looked up): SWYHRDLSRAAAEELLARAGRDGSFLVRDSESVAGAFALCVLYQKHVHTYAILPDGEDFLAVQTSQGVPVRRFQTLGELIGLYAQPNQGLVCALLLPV
In words: fluorescence polarisation.

A further assay addresses T5, SHIP2-SH2 E50A (human, UniProt O15357 20-117, E50A).
T5 sequence (looked up): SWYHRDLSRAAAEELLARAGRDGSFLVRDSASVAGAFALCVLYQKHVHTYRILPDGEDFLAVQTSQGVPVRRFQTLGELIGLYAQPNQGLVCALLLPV
As to the kind of experiment: fluorescence polarisation.

The target in a further assay is T6, SHIP2-SH2 D48A (human, UniProt O15357 20-117, D48A).
T6 sequence (looked up): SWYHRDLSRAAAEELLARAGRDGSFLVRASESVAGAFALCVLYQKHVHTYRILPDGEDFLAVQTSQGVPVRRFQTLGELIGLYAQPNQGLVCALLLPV
As to the kind of experiment: fluorescence polarisation.

The target in a further assay is T7, SHIP2-SH2 Q82A (human, UniProt O15357 20-117, Q82A).
T7 sequence (looked up): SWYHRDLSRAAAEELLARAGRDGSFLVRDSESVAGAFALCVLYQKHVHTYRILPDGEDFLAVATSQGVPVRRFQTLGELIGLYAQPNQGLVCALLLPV
As to the kind of experiment: fluorescence polarisation.

The target in a further assay is T8, SHIP2-SH2 R28A (human, UniProt O15357 20-117, R28A).
T8 sequence (looked up): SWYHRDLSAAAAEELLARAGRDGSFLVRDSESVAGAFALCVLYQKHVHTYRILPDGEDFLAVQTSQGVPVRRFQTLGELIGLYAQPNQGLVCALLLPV
In words: fluorescence polarisation.

As usually defined, the Kd is the constant that tells how readily two partners part at equilibrium. A higher Kd goes with lower affinity. The molecule “Y1356-phosphorylated c-MET peptide (1353-1360), N-A-T-pY-V-N-V-K, unlabeled” showed a Kd in [1] of 16.5 µM.
On to “SHIP2 SH2 domain (SHIP2-SH2), wild type (from UniProt O15357 20-117) (domain or fragment)”, for which, in assay [2], the Kd turned out to be 7.4 µM.

B1: FAM-labeled c-MET peptide (1353-1360) with Y1356 phosphorylated, FAM-N-A-T-pY-V-N-V-K (peptide)
peptide: {FAM}-NAT[pY]VNVK
For the molecule B1, the Kd with SHIP2-SH2 S84A was 6.4 ± 0.2 µM; in the assay with SHIP2-SH2 S49A it was 134 ± 5.6 µM; in the assay with SHIP2-SH2 S27A, 7.3 ± 0.3 µM; with SHIP2-SH2 R70A it was 239 ± 12.1 µM; in the assay with SHIP2-SH2 E50A, 3.2 ± 0.1 µM; with SHIP2-SH2 D48A, 5.5 ± 0.2 µM. Also, the Kd with SHIP2-SH2 Q82A was 7.5 ± 0.3 µM; in the assay with SHIP2-SH2 R28A, 24.7 ± 1 µM.
